Assay [1] addresses C-terminal Fc-tagged human ACE2 recombinant protein (human, UniProt Q9BYF1). The assay is described as follows: SPR. For orientation: SPR reads the build-up and loss of mass on a sensor chip optically.
Assay [2] has as its target His-tagged SARS-CoV-2 S1-RBD recombinant protein, wild type (SARS-CoV-2, UniProt P0DTC2 319-541). The assay is described as follows: SPR.

Chain of C-terminal Fc-tagged human ACE2 recombinant protein (Q9BYF1 18-740): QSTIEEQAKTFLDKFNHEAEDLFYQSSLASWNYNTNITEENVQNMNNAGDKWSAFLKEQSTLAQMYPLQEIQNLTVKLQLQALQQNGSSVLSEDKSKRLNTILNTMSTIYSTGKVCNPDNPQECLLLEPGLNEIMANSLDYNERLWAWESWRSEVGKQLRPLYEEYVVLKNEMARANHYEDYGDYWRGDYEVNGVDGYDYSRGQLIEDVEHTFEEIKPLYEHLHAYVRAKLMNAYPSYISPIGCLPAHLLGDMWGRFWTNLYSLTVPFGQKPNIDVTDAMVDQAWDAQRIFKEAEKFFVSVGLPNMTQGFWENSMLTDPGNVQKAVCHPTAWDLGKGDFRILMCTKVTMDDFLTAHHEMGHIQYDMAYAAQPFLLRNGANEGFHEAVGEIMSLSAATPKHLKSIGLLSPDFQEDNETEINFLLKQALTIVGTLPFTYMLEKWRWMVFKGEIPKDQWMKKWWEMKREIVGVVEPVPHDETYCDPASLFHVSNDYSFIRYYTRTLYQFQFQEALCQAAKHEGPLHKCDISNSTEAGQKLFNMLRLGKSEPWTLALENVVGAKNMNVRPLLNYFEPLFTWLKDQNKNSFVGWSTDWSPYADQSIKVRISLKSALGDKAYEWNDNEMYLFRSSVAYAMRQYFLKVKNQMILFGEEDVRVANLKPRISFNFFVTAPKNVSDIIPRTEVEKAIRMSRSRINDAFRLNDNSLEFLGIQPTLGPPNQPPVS

B1: monoclonal antibody 127 (antibody, V domains shown)
VH: QVQLQQPGAELVKPGASVKLSCKASGYTFTSYWMHWVKQRPGQGLEWIGEINPSNGRKNYNEKFKSKATLTVDKSSSTAYMQLSSLTSEDSAVYYCVRGDYGSSYYWYFDVWGAGTTVTVSS
VL: not shown
With B1, the koff in assay [1] stood at 0.000442 s⁻¹; in assay [2] it was 0.00013 s⁻¹.

B2: monoclonal antibody 150 (antibody, V domains shown)
VH: QVQLQQPGAELVKPGASVKLSCKASGYTFTSYWMHWVKQRPGQGLEWIGEINPSNGRKNYNEKFKSKATLTVDKSSSTAYMQLSSLTSEDSAVYYCVRGDYGSSYYWYFDVWGAGTTVTVSS
VL: not shown
B2: the koff came to 0.00039 s⁻¹ in assay [1] and 0.000441 s⁻¹ in assay [2].

By koff is commonly meant the first-order rate constant of dissociation.

These data come from paper PMC9114768 (2022).
